Tests used:
[1] = Heterogeneous chronic GVHD model (NOG mice transplanted with human umbilical cord blood mononuclear cells); format: in vivo, mouse
Method: On day −1, NOG mice were irradiated with a sublethal dose (100 cGy). On day 0, 5×10^6 human umbilical cord blood mononuclear cells were transplanted from the tail vein of NOG mice. Survival of the mice was assessed daily and body weight was measured twice a week. In an antibody treatment experiment, the control human IgG or anti-human IL-26 monoclonal antibody (the mouse antibody m69-10 and the humanized antibody h69-10A) was administered from day +28 of transplantation when clinical signs/symptoms of mild GVHD began to appear. The antibody solution was adjusted to a concentration of 1 mg/mL with sterile PBS, and 200 μL (200 μg) of the antibody solution per mouse was intraperitoneally injected twice a week. On day +56 after transplantation, the mice were sacrificed, and the skin, lung, liver, and large intestine were collected.
NOG mice were dissected, and then the skin, lung, liver, and large intestine on the back were excised, fixed in 10% formalin solution (Wako) at room temperature, and embedded in paraffin. Thereafter, a section having a thickness of 5 μm was prepared and placed on a glass slide, and stained with hematoxylin and eosin (H&E). In addition, in order to confirm the proliferation of collagen fibers, Azan-Mallory staining was performed. Images of the optical microscope were taken with an Olympus BX41 microscope (OLYMPUS, Tokyo, Japan) connected with an Olympus digital camera DP25, and CellSens software was used.

IL-26 [2] = target: T1, IL-26 (Homo sapiens, UniProt Q9NPH9); assay: ICAM-1 expression analysis of COLO205 (neutralizing activity of IL-26); format: cell-based; set-up: host or cells: added exogenously to COLO205 cells; details: for inhibition of IL-26-enhanced expression of ICAM-1: COLO205, recombinant human IL-26 monomer 20 ng/mL, 24 hours, flow cytometry (MFI); for inhibitory effect on IL-26 compared with m69-10 (ICAM-1 expression): COLO205, antibody doses of 2 μg/mL and 5 μg/mL
T1 sequence (Q9NPH9 22-171): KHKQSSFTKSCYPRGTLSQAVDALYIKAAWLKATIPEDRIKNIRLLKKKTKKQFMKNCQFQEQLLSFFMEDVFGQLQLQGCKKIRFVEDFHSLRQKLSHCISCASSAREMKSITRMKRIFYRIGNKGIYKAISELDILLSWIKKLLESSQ
Method: COLO205 was seeded at 5×10^4 cells/well in a 96-well flat bottom plate, and stimulated with recombinant human IL-26 monomer (20 ng/mL) in the presence or absence of control human IgG or anti-human IL-26 antibody. After 24 hours of culture, the cells were collected and washed with ice-cold PBS (FCM buffer) containing 1% FBS and 0.1% sodium azide. Thereafter, a solution prepared by diluting a PE-labeled mouse anti-human ICAM-1 monoclonal antibody (clone 15.2, catalog number 50-0549-T100) of Bay bioscience (Kobe, Japan) or a PE-labeled mouse Igl,k isotype control monoclonal antibody (clone MOPC-21, catalogue number 400114) of BioLegend with FCM buffer to 5 μg/mL, was added at 50 μL/sample, and the mixture was allowed to stand at 4° C. for 25 minutes. Thereafter, the cells were washed with ice-cold FCM buffer, then measured with FACSCalibur, and the obtained data was analyzed with FlowJo.

IL-26 [3] = target: T1, IL-26; assay: ELISA of antigen binding to human IL-26; set-up: purchased R&D Systems 1375-IL/CF; details: for EC50 values (binding to human IL-26, ELISA): plates coated with 0.5 μg/ml human IL-26 monomer, calculated using GraphPadPrism
Method: The antigen binding of purified Ch69-10-IgG1, Hu69-10A-IgG1, and Hu69-10B-IgG1 was analyzed by ELISA. ELISA plates were coated overnight at 4° C. with the addition of 0.5 μg/ml human IL-26 (recombinant human IL-26/AK155 monomer, Cat #1375-IL/CF, R&D Systems, Minneapolis, MN) at 100 μl/well in 0.2 M sodium carbonate buffer (pH 9.4). Wells were washed with the wash buffer and blocked with the ELISA buffer. Subsequently, 100 μl/well of test antibody (mouse 69-10, Ch69-10-IgG1, Hu69-10A-IgG1, or Hu69-10B-IgG1) serially diluted 2-fold in RPMI medium starting at 5 μg/ml was added to measure a binding with IL-26. After incubation at room temperature for 1 hour and washing the plates with a wash buffer, a 1/2,000-diluted HRP-conjugated goat anti-human kappa chain polyclonal antibody (Bethyl Laboratories) (for Ch69-10-IgG1, Hu69-10A-IgG1 and Hu69-10B-IgG1) or a 1/2,000-diluted HRP-labeled goat anti-mouse kappa chain polyclonal antibody (Bethyl Laboratories) (for mouse 69-10) in ELISA buffer was added at 100 μl/well to detect bound antibodies. After incubation at room temperature for 30 min and washing with the wash buffer, 100 μl/well of ABTS substrate (Sigma Aldrich) was added to start color development and 100 μl/well of 2% oxalic acid was added to stop the color development. The absorbance was measured at 405 nm.

HCC70 cells = assay: MTT assay / cell proliferation (confluence) assay, HCC70; format: cell-based, human
Method: (§1) Human and mouse breast cancer cells (1×10^4) were cultured in 10% FCS containing RPMI1640 medium on a 96-well flat bottom plate (Corning, Tewksbury, MA) at 37° C. for 24 hours, and then stimulated with IL-26 for 48 hours in the presence or absence of EGFR-TKI (gefitinib or erlotinib) at various concentrations, a signal inhibitor, and a neutralizing antibody. HUVECs were seeded in a 96-well flat bottom plate at 5×10^3 cells/well in a 2% FBS-containing EGM medium in which growth factors were reduced by half, and cultured at 37° C. for 12 hours. Thereafter, the medium was aspirated, and a recombinant human IL-26 dimer was adjusted to a final concentration of 10 ng/mL in a 2% FBS-containing EGM medium containing no growth factors, and added to the cells. The stimulation was started in the presence or absence of control human IgG and anti-human IL-26 antibodies, and the cells were cultured for 48 hours. Thereafter, a concentration of 20 μl or 1/10 of a 5 mg/ml MTT solution (Tetrazolium monosodium salt, WST-8) was added to each well, and the plate was allowed to stand for 1 hour. The absorbance at 450 nm/595 nm was measured using Microplate Reader (Bio-Rad, Hercules, CA) and data was analyzed with Microplate Manager 6 software (Bio-Rad).
Human and mouse breast cancer cells (1×10^4) were cultured in RPMI1640 medium containing 10% FCS for 24 hours at 37° C. on a 96-well flat bottom plate (Corning), and then stimulated with IL-26 (30 ng/ml) in the presence or absence of various concentrations of gefitinib and a neutralizing antibody. Cell proliferation was measured as cell confluence using IncuCyte ZOOM (Essen Bioscience, Ann Arbor, MI).

IL-26 [4] = target: T1, IL-26; assay: MTT assay of HUVECs stimulated with IL-26 (neutralizing activity of IL-26); format: cell-based; set-up: purchased R&D Systems; host or cells: added exogenously to HUVECs; details: antibody dose of 3 μg/mL
Method: as §1

[5] = target: T2, interaction between IL-26 and EphA3 (Homo sapiens, UniProt Q9NPH9); assay: Immunofluorescence of rhIL-26-Alexa488 and cell surface EphA3 on HCC70 cells; format: cell-based; details: HCC70, rhIL-26-Alexa488 30 ng/ml, 50 μg/ml each, 1 hour, FIG. 21
T2 construct: purchased R&D Systems; host or cells: IL-26 was purchased; EphA3 is endogenous on HCC70 cells
T2 sequence (Q9NPH9 22-171): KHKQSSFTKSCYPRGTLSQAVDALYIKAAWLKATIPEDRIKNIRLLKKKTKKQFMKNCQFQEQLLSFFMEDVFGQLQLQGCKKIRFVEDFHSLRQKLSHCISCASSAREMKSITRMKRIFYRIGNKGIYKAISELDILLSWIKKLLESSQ
Method: (§2) E0771 and HCC70 cells (1×10^5) were cultured for 24 hours in RPMI1640 medium with 10% FCS on Lab-Tek chamber slides (Thermo Fisher Scientific). The cultured cells were stimulated with Alexa Fluor 488 labeled IL-26 (30 ng/ml) in the presence or absence of recombinant human and mouse EphA3-Ig for 1 hour. HCC70 cells were stimulated with IL-26 (30 ng/ml) in the presence or absence of gefitinib (40 μM), a signal inhibitor, and a neutralizing antibody for 24 hours. Subcutaneous tumor samples obtained from mice were fixed in 4% paraformaldehyde (Thermo Fisher Scientific) and embedded in OCT compound (Tissue-Tek (registered trademark), Sakura Finetek, Japan). Cells and slides were immunostained with each antibody and observed using a Zeiss inverted microscope and Axiovision 2.0 program (Carl Zeiss, Germany). The fluorescence intensity was quantified with Image-J software (NIH). The images were captured using a 100×400× objective.

EphA3/IL-26 interaction = target: T3, EphA3/IL-26 interaction (Homo sapiens, UniProt Q9NPH9); assay: Immunofluorescence of rhIL-26-Alexa 488 and cell surface EphA3 on E0771 cells; format: cell-based, mouse; details: E0771, antibodies 10 μg/ml, FIGS. 19 and 20
T3 construct: purchased R&D Systems; host or cells: IL-26 was purchased; EphA3 is endogenous on E0771 cells
T3 sequence (Q9NPH9 22-171): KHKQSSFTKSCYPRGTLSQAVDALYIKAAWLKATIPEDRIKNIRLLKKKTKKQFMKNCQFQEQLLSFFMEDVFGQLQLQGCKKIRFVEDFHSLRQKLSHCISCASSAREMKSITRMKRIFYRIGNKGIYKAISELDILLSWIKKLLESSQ
Method: as §2

[6] = 200 μg per mouse i.p. twice a week from day 28, data not shown

Molecule	body weight loss [1, 6]	number of survival days [1, 6]	therapeutic effect compared with m69-10 ([1]; FIG. 60)	inhibition of IL-26-enhanced expression of ICAM-1 (IL-26 [2])	inhibitory effect on IL-26 compared with m69-10 (ICAM-1 expression) (IL-26 [2])	EC50 values (binding to human IL-26, ELISA) (IL-26 [3]) [µg/mL]	binding to IL-26 (absorption value) (IL-26 [3]; recombinant human IL-26 immobilized on a plate, FIG. 56)	reversal of inhibitory effect of IL-26 on gefitinib-induced suppression of cell proliferation (HCC70 cells; HCC70, IL-26 30 ng/ml, gefitinib 40 μM, 48 hours, MTT, FIG. 59)	inhibitory effect on IL-26 compared with m69-10 (HCC70 proliferation) (HCC70 cells; antibody doses of 5 μg/mL and 20 μg/mL)	inhibitory effect on IL-26 compared with m69-10 (HUVEC proliferation) (IL-26 [4])	blocking of inhibitory effect of IL-26 on suppression of cell proliferation by gefitinib (HCC70 cells; HCC70, IL-26 30 ng/ml, gefitinib 40 μM, 48 hours, Abs or rhEphA3-Ig 50 μg/ml each, MTT, FIG. 22)	inhibition of interaction between IL-26 and EphA3 [5]	inhibition of colocalization of IL-26 with EphA3 (EphA3/IL-26 interaction) (EphA3/IL-26 interaction)
Hu69-10A-IgG1: humanized 69-10 IgG1/kappa antibody expressed by pHu69-10A (Hu69-10VH1 and Hu69-10VL1) (antibody, V domains shown) VH: QVTLKESGPALVKPTQTLTLTCTFSGFSLSTSGMGVGWIRQPPGKALEWLAHIWWDDDKYYNPSLKSQLTISKDTSKNQVVLTMTNMDPVDTATYYCVRGGITATHYYAMDYWGQGTTVTVSS VL: DIQMTQSPSSLSASVGDRVTITCLASQTIGTWLSWYQQKPGKAPKLLIYAATSLADGVPSRFSGSGSGTKFTFTISSLQPEDIATYYCQQLYSSPWTFGGGTKVEIK	clearly reduced	significantly prolonged	higher therapeutic effect than the original mouse antibody m69-10	partially inhibited	significantly higher inhibitory effect on IL-26 than the original mouse antibody m69-10	0.304	stronger binding to IL-26 than an original mouse antibody m69-10	reversed the inhibitory effect of IL-26 on gefitinib-induced suppression of cell proliferation in an antibody dose-dependent manner	significantly higher inhibitory effect on IL-26 than the original mouse antibody m69-10	significantly higher inhibitory effect on IL-26 than the original mouse antibody m69-10	–	–	–
Hu69-10B-IgG1: humanized 69-10 IgG1/kappa antibody expressed by pHu69-10B (Hu69-10VH1 and Hu69-10VL2) (antibody, V domains shown) VH: QVTLKESGPALVKPTQTLTLTCTFSGFSLSTSGMGVGWIRQPPGKALEWLAHIWWDDDKYYNPSLKSQLTISKDTSKNQVVLTMTNMDPVDTATYYCVRGGITATHYYAMDYWGQGTTVTVSS VL: DIQMTQSPSSLSASVGDRVTITCLASQTIGTWLSWYQQKPGKAPKLLIYAATSLADGVPSRFSGSGSGTDFTFTISSLQPEDIATYYCQQLYSSPWTFGGGTKVEIK	–	–	–	partially inhibited	significantly higher inhibitory effect on IL-26 than the original mouse antibody m69-10	0.396	–	–	–	significantly higher inhibitory effect on IL-26 than the original mouse antibody m69-10	–	–	–
rhEphA3-Ig: recombinant human EphA3 Fc chimeric protein purchased from R&D Systems (protein, left off: a dimerising Fc or GST, recombinant human EphA3 Fc chimeric protein purchased from R&D Systems) ELIPQPSNEVNLLDSKTIQGELGWISYPSHGWEEISGVDEHYTPIRTYQVCNVMDHSQNNWLRTNWVPRNSAQKIYVELKFTLRDCNSIPLVLGTCKETFNLYYMESDDDHGVKFREHQFTKIDTIAADESFTQMDLGDRILKLNTEIREVGPVNKKGFYLAFQDVGACVALVSVRVYFKKCPFTVKNLAMFPDTVPMDSQSLVEVRGSCVNNSKEEDPPRMYCSTEGEWLVPIGKCSCNAGYEERGFMCQACRPGFYKALDGNMKCAKCPPHSSTQEDGSMNCRCENNYFRADKDPPSMACTRPPSSPRNVISNINETSVILDWSWPLDTGGRKDVTFNIICKKCGWNIKQCEPCSPNVRFLPRQFGLTNTTVTVTDLLAHTNYTFEIDAVNGVSELSSPPRQFAAVSITTNQAAPSPVLTIKKDRTSRNSISLSWQEPEHPNGIILDYEVKYYEKQEQETSYTILRARGTNVTISSLKPDTIYVFQIRARTAAGYGTNSRKFEFETSPDSFSISGESSQ	–	–	–	–	–	–	–	–	–	–	potently blocked the inhibitory effect of IL-26 on suppression of cell proliferation by gefitinib	clearly inhibited the interaction between IL-26 and EphA3	inhibited EphA3/IL-26 interaction

Source: patent US20230398116A1, “Agent for reversing resistance to anticancer drugs” (Y'S AC CO., LTD., priority 2020, published 2023)
